One molecule from patent US20260356928 (published 2026) can be followed below.

This experiment has as its target CRMP1 (human, UniProt Q14194). Nature of the experiment: ELISA.

B1: NI-504.3E7 (antibody, V domains shown)
VH: EVQLVETGGGFVQPGGSLQLSCAVSGFPYSGTSFHWVRQVSGKGLEWIGRIRSKSDNYETSYTESLKGRFIVSRDDSKNMVRLHLYSLRTEDTALYYCTTGIIVVDTSYLDHWGRGTLVTVSS
VL: SYELTQPPSASVSPGQTARITCSGAALPKKYAYWYQLKSGQAPVLVIYEDTKRPSGIPERFSGSSSGTLATLTINGALVEDEADYYCYSTDSSGDVWVFGGGTKLTVL
Usually EC50 stands for the concentration needed to bring the measured effect to its halfway point. B1 yielded an EC50 of 69 nM. In other words, the double-digit nanomolar range.
